According to patent US20160355583A1 (Novartis, published 2016):
Residue numbers refer to the chain shown, from its start.

T1: human BMP10 (Bone Morphogenetic Protein 10 Preproprotein [Homo sapiens], NP_055297) (human, UniProt O95393 317-424)
T1 construct: Bought recombinant protein; also called huBMP10; rhBMP10 (R&D Cat#2926-BP-025)
T1 sequence: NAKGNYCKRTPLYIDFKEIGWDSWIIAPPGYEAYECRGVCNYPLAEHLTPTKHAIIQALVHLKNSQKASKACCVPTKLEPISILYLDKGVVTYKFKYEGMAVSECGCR

T2: human BMP9 (BMP9/Growth Differentiation Factor 2 [Homo sapiens], NP_057288) (human, UniProt Q9UK05 320-429, limits assumed)
T2 construct: cell assays use 'recombinant human BMP9 complex'; also called huBMP9; hBMP9
T2 sequence: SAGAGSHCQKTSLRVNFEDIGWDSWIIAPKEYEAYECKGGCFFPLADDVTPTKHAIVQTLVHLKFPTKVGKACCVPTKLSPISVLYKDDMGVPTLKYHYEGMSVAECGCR

T3: cyno BMP9 (cyno, UniProt G7PEU8 320-429)
T3 sequence: T2 sequence with A2T, D23N, V84I

T4: rat BMP9 (rat, UniProt M0RB87 320-430, The mature growth factor is a disulfide-linked homodimer. One copy of the polypeptide is given.)
T4 construct: also called rat BMP9 (R&D Systems 5566-BP); rat BMP9 condition medium
T4 sequence: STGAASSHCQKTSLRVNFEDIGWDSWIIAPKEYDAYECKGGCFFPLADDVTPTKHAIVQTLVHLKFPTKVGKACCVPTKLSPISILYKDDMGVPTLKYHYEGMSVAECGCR

T5: mouse BMP9 (mouse, UniProt Q9WV56 319-428, limits assumed)
T5 construct: also called murine BMP9; mouse BMP9 (iPROT101715)
T5 sequence (looked up): T2 sequence with A2T, G5S, E33D, V84I

B1: Antibody BMP9-2: MOR022962 (antibody, human IgG1, kappa, V domains shown)
VH: QVQLLESGGGLVQPGGSLRLSCAASGFTFSSYAMSWVRQAPGKGLEWVSITLGTGHTHYADSVKGRFTISRDNSKNTLYLQMNSLRAEDTAVYYCARGSYIIWSALDYWGQGTLVTVSS
VL: DIQMTQSPSSLSASVGDRVTITCRASQDIRSYLNWYQQKPGKAPKLLIYDASNLQSGVPSRFSGSGSGTDFTLTISSLQPEDFATYYCQQSDTSPLTFGQGTKVEIKR
B2: Antibody BMP9-7: MOR023787 (antibody, human IgG1, lambda, V domains shown)
VH: QVQLVESGGGLVKPGGSLRLSCAASGFTFSSAWMSWVRQAPGKGLEWVGHIKSKTYGGTIDYAAPVKGRFTISRDDSKNTLYLQMNSLKTEDTAVYYCARVGGYYGYGYAFAYWGQGTLVTVSS
VL: SYELTQPLSVSVALGQTARITCSGDNIGDKYVSWYQQKPGQAPVLVIYDDNKRPSGIPERFSGSNSGNTATLTISRAQAGDEADYYCSSTASKSFNVFGGGTKLTVLG
notes: Fully human, phage display
B3: Antibody BMP9-9: MOR023796 (antibody, human IgG1, lambda, V domains shown)
VH: QVQLVQSGAEVKKPGSSVKVSCKASGGTFSDYAIHWVRQAPGQGLEWMGGIIPFFGTAYYAQKFQGRVTITADESTSTAYMELSSLRSEDTAVYYCARRIVSDSVAVQYRHAFDPWGQGTLVTVSS
VL: QSVLTQPPSVSGAPGQRVTISCSGSSSNIGSNYVYWYQQLPGTAPKLLIYGNNNRPSGVPDRFSGSKSGTSASLAITGLQAEDEADYYCNAWDTKAYVWVFGGGTKLTVLG
notes: Fully human, phage display
B4: Antibody BMP9-3: MOR023795 (antibody, human IgG1, lambda, V domains shown)
VH: EVQLVQSGAEVKKPGESLKISCKGSGYSFTTYWIGWVRQMPGKGLEWMGIIYPEGSYTTYSPSFQGQVTISADKSISTAYLQWSSLKASDTAMYYCARGKRVDASSFDYWGQGTLVTVSS
VL: QSVLTQPPSVSGAPGQRVTISCSGSSSNIGDNYVSWYQQLPGTAPKLLIYRNNKRPSGVPDRFSGSKSGTSASLAITGLQAEDEADYYCSSTDKEHLVFGGGTKLTVLG
notes: Fully human, phage display
B5: Antibody BMP9-8: MOR023793 (antibody, human IgG1, kappa, V domains shown)
VH: QVQLVQSGAEVKKPGASVKVSCKASGYTFTSYYMNWVRQAPGQGLEWMGWINPVQGNTNYAQKFQGRVTMTRDTSISTAYMELSRLRSEDTAVYYCARNYFDVWGQGTLVTVSS
VL: DIQMTQSPSSLSASVGDRVTITCRASQTISNFLAWYQQKPGKAPKLLIYAASNLQSGVPSRFSGSGSGTDFTLTISSLQPEDFAVYYCQQLYAESITFGQGTKVEIKR
notes: Fully human, phage display

These binders were tested against T1, human BMP10 (Bone Morphogenetic Protein …) (assay: Table 7 (caption: MSD-SET; Example 6 describes Biacore SPR on immobilised rhBMP10, Fab 31.25-1000 nM)).

Question: Does B1 bind?
Answer: no binding

Question: Does B2 bind?
Answer: no binding

Question: Does B3 bind?
Answer: no binding

Question: Does B4 bind?
Answer: no binding

Question: Does B5 bind?
Answer: no binding

What follows are binders tested against T2, human BMP9 (BMP9/Growth Differentiation …) (assay: blocking ELISA; competitor Type II BMP receptor (ActRIIB, BMPRII)).
Protocol: (§1) Blocking ELISA was used to identify positive clones that can inhibit the interactions between BMP9 and its receptors. Four different recombinant BMP9 receptors can be used: human Alk1-Fc (R&D system, 370-AL-100); human BMPRII-Fc (R&D system, 811-BR-100); human ActRIIA-Fc (R&D system, 340-R2-100); human ActRIIB-Fc (R&D system).
(§2) The blocking activity of antibody sample to specific ligand/receptor combination was measured by ELISA. In brief, 50 ul of receptor at a concentration of 1 ug/ml in coating buffer (PBS) was added into 96 well ELISA plates at 4° C. overnight, followed by washing with PBST one time. ELISA plates were blocked with 200 ul blocking buffer (PBST containing 1% BSA) in each well and then incubated at room temperature (RT) for 1 hour, followed by washing with PBST for 3 times. Diluted antibody sample was mixed with biotinylated human BMP9 (bio-hBMP9 of 1 ug/ml) and incubated at RT for 45 minutes. The mixture of antibody and bio-hBMP9 was added to the plates of 50 ul/well and then incubated at RT for 30 minutes, followed by washing with PBST for 3 times. 50 ul Poly-HRP Streptavidin (Thermofisher, 21140) was added to each well of the plates and incubated at RT for 30 minutes, followed by washing with PBST for 5 times. Finally, 50 ul of TMB reagent (Invitrogen 002023) and 50 ul of 1N HCl (Invitrogen SS01100) were added to each well to stop the reaction. Absorbance of each well was read at 450 nm to get readout OD₄₅₀.

Question: For B3, which IC50 is on record?
Answer: ≤ 1 nM

Question: How did the IC50 turn out when B4 was run?
Answer: ≤ 1 nM

Question: With B5 as the binder, how does the IC50 read?
Answer: ≤ 1 nM

These binders were tested against T2, human BMP9 (BMP9/Growth Differentiation …) (assay: blocking ELISA; competitor Type I BMP receptor (AlkI)).
Protocol: as §1, §2

Question: For B1, which IC50 is on record?
Answer: ≤ 1 nM

Question: For B2, which IC50 is on record?
Answer: ≤ 1 nM

These binders were tested against T2, human BMP9 (BMP9/Growth Differentiation …) (assay: cell-based or functional assay).

Question: For B1, which “RGA IC50 [pM] (HEK293T BRE-Luc reporter gene assay)” value (“RGA IC50 [pM]” below) is on record?
Answer: 138 pM

Question: With B2 as the binder, how does the “RGA IC50 [pM]” value read?
Answer: 118 pM

Question: B3 was tested. Which “RGA IC50 [pM]” value did it give?
Answer: 130 pM

Question: B4 was tested. Which “RGA IC50 [pM]” value did it give?
Answer: 167 pM

Question: B5 was tested. Which “RGA IC50 [pM]” value did it give?
Answer: 113 pM

Each binder was assayed against T3, cyno BMP9 (assay: MSD-SET solution equilibrium titration).
Protocol: (§3) The amount of free Fab binding sites was determined by transferring the mixtures on antigen-coated plates and a brief incubation. The free Fab was consequently bound to the plate and detected with a detection antibody after a washing step for removing Fab-antigen complexes. The resulting signal was plotted versus the antigen concentration; and the KD was accurately determined by non-linear curve fitting.
(§4) A 22 serial 2ⁿ dilution of the antigens (human BMP9 (GD-43-KS00); cyno BMP9, rat BMP9 (R&D Systems 5566-BP) or mouse BMP9 (iPROT101715)) was prepared in incubation buffer (PBS (Teknova Cat#P0195) containing 0.5% BSA (Sigma Cat#A7906-500G) and 0.02% Tween-20 (VWR Cat#437082Q)). A constant concentration of the Fab was added. A volume of 60 ul of each antigen:Fab mix was distributed in duplicates to a 384-well polypropylene microtiter plate (PP MTP, Greiner Cat#781280). Incubation buffer served as negative control and a sample containing no antigen served as positive control (Bₘₐₓ). The plate was sealed and incubated overnight (O/N) at room temperature (RT).
(§5) A 384-well standard MSD array plate (Meso Scale Discovery Cat#L21XA) was coated with 30 ul/well human BMP9 diluted in PBS as capture agent and incubated O/N at 4° C. After washing for 3 times with 70 ul/well washing buffer (TBS (Teknova Cat#T1680) with 0.05% Tween-20), the plate was blocked with 50 ul/well blocking buffer (PBS with 5% BSA) for 1 hour at RT. After washing, a volume of 30 ul/well of the antigen:Fab mix was transferred from the PP MTP to the coated MSD plate and incubated for 20 min at RT. After an additional wash step, 30 ul of detection antibody (Goat anti-human Fab specific (Jackson Immuno Research Cat#109-005-097) conjugated with MSD SULFO-TAG NHS Ester (Meso Scale Discovery Cat#R91AN-1)) diluted 1:1000 in incubation buffer was added to each well and incubated for 30 min at RT. The MSD plate was washed and 35 ul/well of read buffer (MSD Read Buffer T 4×, Meso Scale Discovery Cat#R92TC-1) was added and then incubated for 5 min at RT. ECL signals were measured with the MSD SECTOR Imager 6000. The data was evaluated with XLfit (IDBS) software following a 1:1 fit model for Fab (according to Piehler et al., 1997).

Question: How did the Kd turn out when B1 was run?
Answer: 0.018 nM

Question: How did the Kd turn out when B2 was run?
Answer: 0.35 nM

Question: Which Kd does the source give for B3 here?
Answer: 0.13 nM

Question: How did the Kd turn out when B4 was run?
Answer: 0.262 nM

Question: With B5 as the binder, how does the Kd read?
Answer: 0.24 nM

What follows are binders tested against T4, rat BMP9 (assay: MSD-SET solution equilibrium titration).
Protocol: as §3, §4, §5

Question: Which Kd does the source give for B1 here?
Answer: 0.006 nM

Question: For B4, which Kd is on record?
Answer: 0.069 nM

The binders below were run against T5, mouse BMP9 (assay: MSD-SET solution equilibrium titration).
Protocol: as §3, §4, §5

Question: For B1, which Kd is on record?
Answer: 0.005 nM

Question: With B2 as the binder, how does the Kd read?
Answer: 0.74 nM

Question: How did the Kd turn out when B3 was run?
Answer: 0.42 nM

Question: For B4, which Kd is on record?
Answer: 0.059 nM

Question: How did the Kd turn out when B5 was run?
Answer: 0.44 nM

What follows are binders tested against T2, human BMP9 (BMP9/Growth Differentiation …) (assay: MSD-SET solution equilibrium titration).
Protocol: as §3, §4, §5

Question: Which Kd does the source give for B1 here?
Answer: 0.012 nM

Question: B2 was tested. Which Kd did it give?
Answer: 0.2 nM

Question: For B3, which Kd is on record?
Answer: 0.44 nM

Question: Which Kd does the source give for B4 here?
Answer: 0.288 nM

Question: B5 was tested. Which Kd did it give?
Answer: 0.12 nM
